Experimental data reported in patent publication US20190359719A1.

Target: c-Met (UniProt P08581)
Assay: Biacore SPR

Sequence of c-Met (P08581 25-932): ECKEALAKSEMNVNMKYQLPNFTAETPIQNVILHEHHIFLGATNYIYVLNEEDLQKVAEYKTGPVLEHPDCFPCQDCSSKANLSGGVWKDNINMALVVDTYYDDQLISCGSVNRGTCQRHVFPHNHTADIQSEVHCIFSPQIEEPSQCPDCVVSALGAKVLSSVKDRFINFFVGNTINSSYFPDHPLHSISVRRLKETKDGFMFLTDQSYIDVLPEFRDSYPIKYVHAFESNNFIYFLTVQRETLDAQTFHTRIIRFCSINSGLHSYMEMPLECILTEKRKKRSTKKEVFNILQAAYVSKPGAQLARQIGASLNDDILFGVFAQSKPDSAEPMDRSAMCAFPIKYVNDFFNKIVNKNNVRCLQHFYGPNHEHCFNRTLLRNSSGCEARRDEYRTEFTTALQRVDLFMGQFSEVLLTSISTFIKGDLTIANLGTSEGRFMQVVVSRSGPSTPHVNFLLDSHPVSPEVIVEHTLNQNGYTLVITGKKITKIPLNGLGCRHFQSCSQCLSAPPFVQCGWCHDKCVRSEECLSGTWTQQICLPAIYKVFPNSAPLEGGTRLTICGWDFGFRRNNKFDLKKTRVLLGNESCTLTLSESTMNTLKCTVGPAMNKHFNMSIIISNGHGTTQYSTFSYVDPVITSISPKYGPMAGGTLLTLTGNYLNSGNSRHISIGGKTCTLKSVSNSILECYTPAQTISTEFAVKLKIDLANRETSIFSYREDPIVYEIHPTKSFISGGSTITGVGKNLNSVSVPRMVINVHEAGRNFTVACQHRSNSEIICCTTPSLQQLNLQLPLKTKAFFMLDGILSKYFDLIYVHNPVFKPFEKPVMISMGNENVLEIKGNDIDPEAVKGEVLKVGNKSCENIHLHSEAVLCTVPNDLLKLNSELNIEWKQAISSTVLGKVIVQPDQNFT

## 5D5
  Ka: 5.89e+09 M⁻¹
  Kd: 0.17 nM
